Laboratory results from the Immune Epitope Database (IEDB).

Assays:
[1] = biological target: HLA-A*01:01; experiment: IEDB peptide-MHC binding, purified MHC/direct/fluorescence; filed as Kd, often an IC50 or EC50 that approximates it; ≥ and ≤ were set here for values at or beyond the usual limits of such assays
[2] = biological target: HLA-A*26:01; experiment: IEDB peptide-MHC binding, purified MHC/competitive/radioactivity; filed as Kd, often an IC50 or EC50 that approximates it; ≥ and ≤ were set here for values at or beyond the usual limits of such assays
[3] = biological target: HLA-A*01:01; experiment: as above
[4] = biological target: HLA-A*29:02; experiment: as above
[5] = biological target: HLA-A*30:02; experiment: as above
[6] = biological target: HLA-A*24:02; experiment: as above
[7] = biological target: HLA-A*23:01; experiment: as above
[8] = biological target: HLA-A*31:01; experiment: as above; settings: source organism: Vaccinia virus WR
[9] = biological target: HLA-A*03:01; experiment: as above; settings: source organism: Vaccinia virus WR
[10] = biological target: HLA-A*11:01; experiment: as above; settings: source organism: Vaccinia virus WR
[11] = biological target: HLA-A*33:01; experiment: as above; settings: source organism: Vaccinia virus WR
[12] = biological target: HLA-A*68:01; experiment: as above; settings: source organism: Vaccinia virus WR
[13] = biological target: HLA-A*69:01; experiment: IEDB peptide-MHC binding, purified MHC/direct/fluorescence; filed as Kd, often an IC50 or EC50 that approximates it; ≥ and ≤ were set here for values at or beyond the usual limits of such assays
[14] = biological target: HLA-A*11:01; experiment: as above
[15] = biological target: HLA-B*15:01; experiment: as above
[16] = biological target: HLA-B*40:01; experiment: IEDB peptide-MHC binding, purified MHC/competitive/radioactivity; filed as Kd, often an IC50 or EC50 that approximates it; ≥ and ≤ were set here for values at or beyond the usual limits of such assays
[17] = biological target: HLA-A*02:01; experiment: IEDB peptide-MHC binding, purified MHC/direct/fluorescence; filed as Kd, often an IC50 or EC50 that approximates it; ≥ and ≤ were set here for values at or beyond the usual limits of such assays
[18] = biological target: HLA-B*44:03; experiment: IEDB peptide-MHC binding, purified MHC/competitive/radioactivity; filed as Kd, often an IC50 or EC50 that approximates it; ≥ and ≤ were set here for values at or beyond the usual limits of such assays
[19] = biological target: HLA-B*58:01; experiment: IEDB peptide-MHC binding, purified MHC/direct/fluorescence; filed as Kd, often an IC50 or EC50 that approximates it; ≥ and ≤ were set here for values at or beyond the usual limits of such assays
[20] = biological target: HLA-B*07:02; experiment: as above
[21] = biological target: HLA-A*03:01; experiment: as above; settings: source organism: Brucella abortus
[22] = source organism: SARS coronavirus Tor2
[23] = source organism: Mammarenavirus brazilense
[24] = source organism: Mammarenavirus machupoense
[25] = source organism: Dengue virus 4 Philippines/H241/1956
[26] = source organism: Dengue virus 2 Jamaica/1409/1983
[27] = source organism: Clostridium botulinum
[28] = source organism: Mycobacterium tuberculosis
[29] = source organism: Dengue virus 3 Martinique/1243/1999
[30] = source organism: Lassa virus Josiah
[31] = source organism: Mammarenavirus whitewaterense
[32] = source organism: Mammarenavirus guanaritoense
[33] = source organism: Lassa virus GA391
[34] = source organism: Entamoeba histolytica HM-1:IMSS
[35] = source organism: Marburg virus - Musoke, Kenya, 1980
[36] = source organism: Triticum aestivum
[37] = source organism: Mammarenavirus juninense
[38] = source organism: Brucella abortus

Sequence	Kd [2, 22] [nM]	Kd [3, 22] [nM]	Kd [4, 22] [nM]	Kd [5, 22] [nM]	Kd [6, 22] [nM]	Kd [7, 22] [nM]	other results
AARISSCLK							Kd ([1]; source organism: Yersinia pestis): ≥ 20000 nM
ATEETFKLSY	11700	54.4	224	387	≥ 70300	≥ 52500	
AYVNQAHHI							Kd [4, 23]: ≥ 73300 nM; Kd [6, 23]: 66.2 nM; Kd [7, 23]: 47.6 nM
CGDPSSFEY							Kd [2, 24]: ≥ 77900 nM; Kd [3, 24]: 39.4 nM; Kd [4, 24]: 834 nM; Kd [5, 24]: 421 nM; Kd [6, 24]: ≥ 64100 nM; Kd [7, 24]: ≥ 77700 nM
CTPPALNCY	≥ 43600	≥ 69400	1300	4790	≥ 77600	≥ 32400	
DMFLTSVINR							Kd [8]: 6.58 nM; Kd ([4]; source organism: Vaccinia virus WR): ≥ 42900 nM; Kd [9]: 965 nM; Kd [10]: 2420 nM; Kd [11]: 2.3 nM; Kd [12]: 10.2 nM
EIEPKLDGYY	163	55.1	7390	534	≥ 70300	≥ 70000	
ELSPRWYFYY	4.04	91.4	8.01	60.1	9440	8810	
EVDPIGHLY							Kd ([13]; source organism: Homo sapiens): 4390 nM; Kd ([14]; source organism: Homo sapiens): 3360 nM; Kd ([15]; source organism: Homo sapiens): 3710 nM
EYADVFHLYL	1970	85.5	160	1350	16.7	9.55	
FEEYKRSGIL							Kd [16, 25]: 18.7 nM
FEKQLGQVML							Kd [16, 26]: 130 nM
FLWSSIIFK							Kd [13, 27]: 7000 nM; Kd [17, 27]: 4430 nM
FLWWNAAPA							Kd [13, 28]: ≤ 1 nM
FSSLPSYAAY	261	2.04	8.85	2.77	≥ 70300	≥ 70000	
GEIGAIALD							Kd [18, 29]: 907 nM
GTGPEASLPY	412	349	117	920	≥ 70300	≥ 70000	
GYCLTRWMLI							Kd [4, 30]: 12200 nM; Kd [6, 30]: 1100 nM; Kd [7, 30]: 242 nM
HDHHFTPQI							Kd [2, 31]: ≥ 77900 nM; Kd [3, 31]: ≥ 78100 nM; Kd [4, 31]: ≥ 78900 nM; Kd [5, 31]: ≥ 76900 nM; Kd [6, 31]: ≥ 77500 nM; Kd [7, 31]: ≥ 45300 nM
HSVGFDYVY	586	14900	157	11.9	≥ 77600	≥ 77800	

Sequence	Kd [2, 22] [nM]	Kd [3, 22] [nM]	Kd [4, 22] [nM]	Kd [5, 22] [nM]	Kd [6, 22] [nM]	Kd [7, 22] [nM]	other results
ISEPTIHLV							Kd [2, 32]: ≥ 77900 nM; Kd [3, 32]: 626 nM; Kd [4, 32]: ≥ 78900 nM; Kd [5, 32]: 4890 nM; Kd [6, 32]: ≥ 77500 nM; Kd [7, 32]: 15400 nM
ISLICGHSY							Kd ([19]; source organism: Homo sapiens): 22 nM; Kd ([1]; source organism: Homo sapiens): 11000 nM; Kd ([13]; source organism: Homo sapiens): 5280 nM; Kd ([20]; source organism: Homo sapiens): 17400 nM; Kd ([14]; source organism: Homo sapiens): 8980 nM; Kd ([15]; source organism: Homo sapiens): 108 nM
KDFKCFNLI							Kd [2, 33]: ≥ 77900 nM; Kd [3, 33]: 1180 nM; Kd [4, 33]: ≥ 78900 nM; Kd [5, 33]: ≥ 33600 nM; Kd [6, 33]: 792 nM; Kd [7, 33]: 395 nM
KEENLVNSL							Kd [16, 26]: 2.17 nM
KEIGRMLNIL							Kd [16, 26]: 4.83 nM
KFRDMITFR							Kd ([1]; source organism: Vibrio cholerae): ≥ 20000 nM
KLYDSVYLT							Kd [13, 34]: ≥ 20000 nM; Kd [17, 34]: 7.6 nM
KWDLLKYDF	≥ 77900	≥ 78100	4.95	89.3	≥ 28400	12700	
LEIDFGECPG							Kd [16, 25]: 10200 nM
LFWAVKPKI							Kd [4, 23]: 9350 nM; Kd [6, 23]: 2770 nM; Kd [7, 23]: 2120 nM
LKILVLSIL							Kd [2, 32]: ≥ 32600 nM; Kd [3, 32]: 272 nM; Kd [4, 32]: 15100 nM; Kd [5, 32]: 11000 nM; Kd [6, 32]: 1830 nM; Kd [7, 32]: 11100 nM
LLWKTWYPC							Kd ([20]; source organism: Homo sapiens): 14600 nM
LSDHQDLKW							Kd ([19]; source organism: SARS-CoV1): 26.6 nM; Kd ([1]; source organism: SARS-CoV1): 818 nM
LSNFGAPSY	4580	81.2	13.9	1.77	≥ 77600	≥ 77800	
LTKGTLEPEY	1990	3200	2050	536	≥ 70300	≥ 70000	
LTQDLFLPFY	481	8.38	53.5	2.26	10500	18000	
MEVEIWTRE							Kd [18, 25]: 1080 nM
MIRAQAGSL							Kd [20, 28]: 33.5 nM
MLAKYDHLV							Kd [13, 35]: 104 nM; Kd [17, 35]: 27 nM
MMSAPPAEY	2240	182	1.23	0.112	12700	≥ 51100	

Sequence	Kd [2, 22] [nM]	Kd [3, 22] [nM]	Kd [4, 22] [nM]	Kd [5, 22] [nM]	Kd [6, 22] [nM]	Kd [7, 22] [nM]	other results
NMVYMPASW	≥ 77900	≥ 78100	≥ 25100	≥ 96800	4020	706	
PTTTYTLEY							Kd [1, 28]: 14.2 nM
QFEEIRNLAL							Kd [2, 36]: ≥ 69700 nM; Kd [3, 36]: ≥ 70400 nM; Kd [4, 36]: 3880 nM; Kd [5, 36]: 7390 nM; Kd [6, 36]: 6850 nM; Kd [7, 36]: ≥ 21700 nM
QYGSFCTQL	≥ 77900	≥ 78100	≥ 78900	≥ 93800	≥ 107000	≥ 75400	
QYSQPQQPI							Kd [2, 36]: ≥ 77900 nM; Kd [3, 36]: ≥ 56400 nM; Kd [4, 36]: 407 nM; Kd [5, 36]: 93.3 nM; Kd [6, 36]: 2620 nM; Kd [7, 36]: 16100 nM
RETACLGKAY							Kd [18, 29]: 17.9 nM
SEFQIYKKSG							Kd [18, 26]: 3730 nM; Kd [16, 26]: 407 nM
SFYCDPKRYF							Kd [4, 23]: 29.4 nM; Kd [6, 23]: 443 nM; Kd [7, 23]: 84.6 nM
SGKDTPGGY							Kd [2, 37]: ≥ 77900 nM; Kd [3, 37]: 13600 nM; Kd [4, 37]: ≥ 69700 nM; Kd [5, 37]: 2.85 nM; Kd [6, 37]: ≥ 77500 nM; Kd [7, 37]: ≥ 77700 nM
TEATQLATL							Kd [16, 29]: 8.32 nM
TKHPSLNII							Kd [2, 31]: ≥ 77900 nM; Kd [3, 31]: ≥ 47100 nM; Kd [4, 31]: ≥ 78900 nM; Kd [5, 31]: ≥ 76900 nM; Kd [6, 31]: ≥ 52100 nM; Kd [7, 31]: ≥ 53100 nM
VAEGQTLDL							Kd ([20]; source organism: Homo sapiens): ≥ 87200 nM
VLCSSSPTI							Kd [4, 32]: ≥ 30700 nM; Kd [6, 32]: 1670 nM; Kd [7, 32]: 457 nM
VQGPGGSTY							Kd [21]: 14500 nM; Kd [14, 38]: 8940 nM; Kd [15, 38]: 190 nM
VSVKMFDAY	11500	102	76.6	639	10300	10500	
VVAIDYRHY	≥ 22100	≥ 52600	64.7	11.7	≥ 77600	≥ 77800	
YTGNYQCGHY	128	3.38	22.5	1.15	≥ 70300	≥ 70000	
YYQLESTQI	≥ 77900	≥ 52800	247	≥ 81100	7.7	126	
